Data: patent US20090036380A1, “Composition And Method For Brain Tumor Therapy” (Yeda Research and Development Co., Ltd., priority 2006, published 2009)

Target: EGFR-Flag (UniProt P00533)
Test: cell-based or functional assay

HA-Karet (full-length mouse Karet with N-terminal haemagglutinin tag), sequence (Q8K2Y9 whole entry): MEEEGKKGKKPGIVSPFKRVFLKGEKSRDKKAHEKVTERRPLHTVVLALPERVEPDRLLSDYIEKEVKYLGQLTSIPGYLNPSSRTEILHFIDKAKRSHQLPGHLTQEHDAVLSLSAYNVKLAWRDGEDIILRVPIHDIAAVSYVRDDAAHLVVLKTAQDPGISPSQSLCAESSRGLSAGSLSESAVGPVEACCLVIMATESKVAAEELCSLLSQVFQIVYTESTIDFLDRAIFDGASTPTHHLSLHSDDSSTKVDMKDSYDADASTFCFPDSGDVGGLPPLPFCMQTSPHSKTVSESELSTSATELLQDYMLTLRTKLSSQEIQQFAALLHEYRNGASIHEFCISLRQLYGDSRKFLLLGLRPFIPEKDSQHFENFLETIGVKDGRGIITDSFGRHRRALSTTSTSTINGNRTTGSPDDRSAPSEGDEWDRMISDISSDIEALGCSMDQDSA

Substance: HA-Karet (full-length mouse Karet with N-terminal haemagglutinin tag) (from UniProt Q8K2Y9 1-453)
- decrease in cell viability, Hek cells co-transfected with EGFR and Karet (XTT): 40%
